Measurements: patent US8835119B2, “Lectin pathway deficiency assay” (Euro Diagnostica AB, priority 2002, dated 2014)

Legend:
[1] = tested on: alternative pathway (AP) of complement; details: NHS in calcium-free buffer (GVB/MgEGTA)
Procedure: As a ligand for AP activation, LPS was coated at 10 μg/ml. LPS from Salmonella typhosa was obtained from Sigma (L-6386), dissolved in PBS at 1.6 mg/ml and stored at −20° C. Plates were blocked by using 1% BSA in PBS. Serum samples were diluted in GVB/MgEGTA (VBS containing 10 mM EGTA, 5 mM MgCl2, 0.05% Tween-20, and 0.1% gelatin; pH 7.5) and incubated in the plate for 1 hour at 37° C. Complement binding was assessed by using dig-conjugated mAb directed against C4 and C3 followed by the detection of mAb binding by using HRP-conjugated sheep anti-dig antibodies.
In order to enable the detection of all complement activation pathways in one assay system, the activation of the alternative pathway in an ELISA system was also studied. […] Therefore, a calcium-free buffer was used, thus excluding involvement of the CP and the LP.

C1q [2] = target: T1, C1q (Homo sapiens, UniProt P02745+P02746+P02747); details: cited from earlier work
[3] = tested on: classical complement pathway; details: several in vitro assays; cited from earlier work
C1q [4] = target: T1, C1q; parameters: Human C1q was isolated from human donor plasma exactly as described previously; from tissue; host or cells: human donor plasma; details: cited from earlier work
C1q [5] = target: T1, C1q; parameters: Human C1q was isolated from human donor plasma exactly as described previously; from tissue; host or cells: human donor plasma; details: cited from earlier work; remark: listed apart in the source
[6] = tested on: classical pathway (CP) of complement; test: Classical pathway ELISA: complement activation by NHS on immobilized IgM; type: biochemical, human; details: FIG. 3C; C1q-depleted NHS 1/400, purified C1q 0.5 μg/ml
Procedure: Anti-C1q antibodies were tested for their ability to inhibit the CP of complement by using immobilized IgM as a specific activator of the CP. […] These antibodies were tested for their effect on complement activation induced by immobilized mannan.
As a ligand for CP activation, human IgM was coated at 2 μg/ml. After blocking of residual binding sites, serum samples, diluted in GVB++, were added to the plate and incubated for 1 hour at 37° C.
The complement activation cascade was further studied by using mAb to detect binding of specific complement components upon their activation via the CP and the LP, respectively. […] Therefore, addition of mAb 2004 to serum allows the specific detection of LP activation by using mannan as ligand without any interference of the CP.

C1q [7] = target: T1, C1q; test: C1q-dependent hemolytic assay; type: cell-based; parameters: Human C1q was isolated from human donor plasma exactly as described previously; from tissue; host or cells: human donor plasma
Procedure: (Roos A., et al., J. Immunol. 167, 7052-7059, 2001).
For the preparation of C1q-depleted serum, undiluted normal human EDTA plasma (obtained from a donor with the MBL/AA genotype) was applied on column consisting of Biogel A5 (from Biorad) coupled to rabbit IgG anti-human C1q. The column was washed by using Veronal-buffered saline (VBS; 1.8 mM Na-5,5-diethylbarbital, 0.2 mM 5,5-diethylbarbituric acid, 145 mM NaCl) containing 10 mM EDTA. Fractions were tested in a C1q-dependent hemolytic assay in the absence or presence of purified C1q. […] After recalcification, C1q-depleted serum was stored at −80° C.

[8] = tested on: lectin pathway (LP) of complement; test: Lectin pathway ELISA: complement activation by NHS on immobilized mannan; type: biochemical, human; details: FIG. 3C; C1q-depleted NHS 1/400, purified C1q 0.5 μg/ml
Procedure: Functional activity of the lectin pathway was assessed with ELISA by using immobilized mannan as a ligand. Mannan was obtained from Sigma from Saccharomyces cerevisiae; M7504), dissolved in PBS (10 mg/ml) and stored at −20° C. Nunc Maxisorb plates (Nunc, Roskilde, Denmark) were coated with mannan (100 μg/ml) in coating buffer (100 mM Na2CO3/NaHCO3, pH 9.6) for 16 hours at room temperature or for 2 hours at 37° C. After each step, the plates were washed three times with PBS containing 0.05% Tween 20. Residual binding sites were blocked by incubation for one hour at 37° C. with PBS containing 1% BSA. […] This mixture was pre-incubated for 15 minutes on ice, before addition to the plates. […] Complement binding was detected by using mouse mAb conjugated to digoxygenin (dig) by using digoxygenin-3-O-methylcarbonyl-ε-aminocaproic acid-N-hydroxysuccinimide ester (from Boehringer Mannheim, Mannheim, Germany) according to instructions provided by the manufacturer. […] Binding of mAb was detected by using dig-conjugated sheep anti-mouse antibodies (Fab fragments) followed by HRP-conjugated sheep anti-dig antibodies (Fab fragments, both from Boehringer Mannheim). […] Enzyme activity of HRP was detected following incubation at room temperature for 30-60 min with 2,2′-azino-bis(3-ethylbenzthiazoline-6-sulfonic acid) (from Sigma; 2.5 mg/ml in 0.1 M citrate/Na2HPO4 buffer, pH 4.2) in the presence of 0.01% H2O2. […]

T1 sequence (P02745 23-245): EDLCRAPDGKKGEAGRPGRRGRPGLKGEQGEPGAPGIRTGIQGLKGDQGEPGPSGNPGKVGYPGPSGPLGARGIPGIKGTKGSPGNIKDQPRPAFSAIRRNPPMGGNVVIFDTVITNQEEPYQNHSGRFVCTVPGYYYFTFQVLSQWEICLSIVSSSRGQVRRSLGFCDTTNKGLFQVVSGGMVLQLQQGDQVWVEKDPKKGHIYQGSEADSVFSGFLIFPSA
T1 sequence (P02746 28-253): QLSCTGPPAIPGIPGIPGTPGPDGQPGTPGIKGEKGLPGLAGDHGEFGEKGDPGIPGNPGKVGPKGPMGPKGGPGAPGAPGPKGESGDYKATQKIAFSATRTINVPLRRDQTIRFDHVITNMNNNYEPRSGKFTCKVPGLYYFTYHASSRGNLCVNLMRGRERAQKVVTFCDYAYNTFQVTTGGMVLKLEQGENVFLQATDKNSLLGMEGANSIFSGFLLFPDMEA
T1 sequence (P02747 29-245): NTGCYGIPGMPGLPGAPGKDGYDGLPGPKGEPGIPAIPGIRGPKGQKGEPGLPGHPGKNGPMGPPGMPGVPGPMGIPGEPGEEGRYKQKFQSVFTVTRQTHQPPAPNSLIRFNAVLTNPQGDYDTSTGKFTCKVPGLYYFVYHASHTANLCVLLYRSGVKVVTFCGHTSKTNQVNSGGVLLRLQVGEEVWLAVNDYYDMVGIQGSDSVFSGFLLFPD

Molecule: O=C(O)CN(CCN(CC(=O)O)CC(=O)O)CC(=O)O [EDTA]
- Detection of C3 when present in the complement source [1]: reduced until background levels

Molecule: AEAKAKA
- Mechanism of C1 inhibition (C1q [2]): Inhibits C1q ligand binding
- Inhibition of activation of the classical complement pathway [3]: able to inhibit

Molecule: C1 inhibitor: plasma serine protease inhibitor
- Mechanism of C1 inhibition (C1q [2]): Inhibits C1r and C1s activity

Molecule: CEGPFGPRHDLTFCW [Peptide 2J]
- Mechanism of C1 inhibition (C1q [2]): Binds C1q head, inhibits
- Inhibition of binding of C1q to IgG (C1q [4]): inhibits
- Inhibition of C1q-dependent hemolysis / C1q hemolytic function (C1q [5]): strong inhibitor

Molecule: KDIRCKDD
- Mechanism of C1 inhibition (C1q [2]): Inhibits C1q ligand binding

Molecule: LEQGENVFLQATLL [Peptide CBP2]
- Mechanism of C1 inhibition (C1q [2]): Acts as a competitor for C1q

Molecule: Surfactant protein A: collectin present in the lung
- Mechanism of C1 inhibition (C1q [2]): Inhibits C1q ligand binding

Molecule: VQVHNAKTKPR
- Inhibition of activation of the classical complement pathway [3]: able to inhibit

Molecule: human neutrophil peptide-1 [HNP-1]
- Mechanism of C1 inhibition (C1q [2]): Binds C1q tail and inhibits

Molecule: purified C1q: human C1q isolated from human donor plasma
- C4 activation by IgM after reconstitution of C1q-depleted serum [6]: complete restoration
- Restoration of lysis of antibody-coated erythrocytes induced by C1q-depleted human serum (C1q [7]): completely restore
- C4 activation by mannan after addition to C1q-depleted serum [8]: slightly inhibited

B1: Calreticulin (protein, UniProt P27797 18-417, looked up)
Calreticulin: EPAVYFKEQFLDGDGWTSRWIESKHKSDFGKFVLSSGKFYGDEEKDKGLQTSQDARFYALSASFEPFSNKGQTLVVQFTVKHEQNIDCGGGYVKLFPNSLDQTDMHGDSEYNIMFGPDICGPGTKKVHVIFNYKGKNVLINKDIRCKDDEFTHLYTLIVRPDNTYEVKIDNSQVESGSLEDDWDFLPPKKIKDPDASKPEDWDERAKIDDPTDSKPEDWDKPEHIPDPDAKKPEDWDEEMDGEWEPPVIQNPEYKGEWKPRQIDNPDYKGTWIHPEIDNPEYSPDPSIYAYDNFGVLGLDLWQVKSGTIFDNFLITNDEAYAEEFGNETWGVTKAAEKQMKDKQDEEQRLKEEEEDKKRKEEEEAEDKEDDEDKDEDEEDEEDKEEDEEEDVPGQAKDEL
- Inhibition of C1q-dependent hemolysis / C1q hemolytic function (C1q [5]): inhibit

B2: Decorin: dermatan sulfate proteoglycan, a constituent of the extracellular matrix (protein, UniProt P07585 31-359, looked up)
Decorin: DEASGIGPEVPDDRDFEPSLGPVCPFRCQCHLRVVQCSDLGLDKVPKDLPPDTTLLDLQNNKITEIKDGDFKNLKNLHALILVNNKISKVSPGAFTPLVKLERLYLSKNQLKELPEKMPKTLQELRAHENEITKVRKVTFNGLNQMIVIELGTNPLKSSGIENGAFQGMKKLSYIRIADTNITSIPQGLPPSLTELHLDGNKISRVDAASLKGLNNLAKLGLSFNSISAVDNGSLANTPHLRELHLDNNKLTRVPGGLAEHKYIQVVYLHNNNISVVGSSDFCPPGHNTKKASYSGVSLFSNPVQYWEIQPSTFRCVYVRSAIQLGNYK
- Mechanism of C1 inhibition (C1q [2]): Binds to C1q head

B3: gC1qR: globular C1q receptor, binds specifically to the globular head of C1q (protein, UniProt Q07021 74-282, looked up)
Complement component 1 Q …: LHTDGDKAFVDFLSDEIKEERKIQKHKTLPKMSGGWELELNGTEAKLVRKVAGEKITVTFNINNSIPPTFDGEEEPSQGQKVEEQEPELTSTPNFVVEVIKNDDGKKALVLDCHYPEDEVGQEDEAESDIFSIREVSFQSTGESEWKDTNYTLNTDSLDWALYDHLMDFLADRGVDNTFADELVELSTALEHQEYITFLEDLKSFVKSQ
- Mechanism of C1 inhibition (C1q [2]): Binds C1q head
